From US20030175270A1, “Methods of regulating cytokine receptor signaling” (priority 2002, published 2003)

B1: lambda PTPase: bacterial lambda PTPase, from Calbiochem (protein)
chain: MRYYEKIDGSKYRNIWVVGDLHGCYTNLMNKLDTIGFDNKKDLLISVGDLVDRGAENVECLELITFPWFRAVRGNHEQMMIDGLSERGNVNHWLLNGGGWFFNLDYDKEILAKALAHKADELPLIIELVSKDKKYVICHADYPFDEYEFGKPVDHQQVIWNRERISNSQNGIVKEIKGADTFIFGHTPAVKPLKFANQMYIDTGAVFCGNLTLIQVQGEGA
B2: PTPase-dead rCD45: PTPase-dead recombinant CD45, D1:C828S mutant (protein, UniProt P08575 26-1306, looked up, variant C828S)
Receptor-type …: QSPTPSPTGLTTAKMPSVPLSSDPLPTHTTAFSPASTFERENDFSETTTSLSPDNTSTQVSPDSLDNASAFNTTGVSSVQTPHLPTHADSQTPSAGTDTQTFSGSAANAKLNPTPGSNAISDVPGERSTASTFPTDPVSPLTTTLSLAHHSSAALPARTSNTTITANTSDAYLNASETTTLSPSGSAVISTTTIATTPSKPTCDEKYANITVDYLYNKETKLFTAKLNVNENVECGNNTCTNNEVHNLTECKNASVSISHNSCTAPDKTLILDVPPGVEKFQLHDCTQVEKADTTICLKWKNIETFTCDTQNITYRFQCGNMIFDNKEIKLENLEPEHEYKCDSEILYNNHKFTNASKIIKTDFGSPGEPQIIFCRSEAAHQGVITWNPPQRSFHNFTLCYIKETEKDCLNLDKNLIKYDLQNLKPYTKYVLSLHAYIIAKVQRNGSAAMCHFTTKSAPPSQVWNMTVSMTSDNSMHVKCRPPRDRNGPHERYHLEVEAGNTLVRNESHKNCDFRVKDLQYSTDYTFKAYFHNGDYPGEPFILHHSTSYNSKALIAFLAFLIIVTSIALLVVLYKIYDLHKKRSCNLDEQQELVERDDEKQLMNVEPIHADILLETYKRKIADEGRLFLAEFQSIPRVFSKFPIKEARKPFNQNKNRYVDILPYDYNRVELSEINGDAGSNYINASYIDGFKEPRKYIAAQGPRDETVDDFWRMIWEQKATVIVMVTRCEEGNRNKCAEYWPSMEEGTRAFGDVVVKINQHKRCPDYIIQKLNIVNKKEKATGREVTHIQFTSWPDHGVPEDPHLLLKLRRRVNAFSNFFSGPIVVHSSAGVGRTGTYIGIDAMLEGLEAENKVDVYGYVVKLRRQRCLMVQVEAQYILIHQALVEYNQFGETEVNLSELHPYLHNMKKRDPPSEPSPLEAEFQRLPSYRSWRTQHIGNQEENKSKNRNSNVIPYDYNRVPLKHELEMSKESEHDSDESSDDDSDSEEPSKYINASFIMSYWKPEVMIAAQGPLKETIGDFWQMIFQRKVKVIVMLTELKHGDQEICAQYWGEGKQTYGDIEVDLKDTDKSSTYTLRVFELRHSKRKDSRTVYQYQYTNWSVEQLPAEPKELISMIQVVKQKLPQKNSSEGNKHHKSTPLLIHCRDGSQQTGIFCALLNLLESAETEEVVDIFQVVKALRKARPGMVSTFEQYQFLYDVIASTYPAQNGQVKKNNHQEDKIEFDNEVDKVKQDANCVNPLGAPEKLPEAKEQAEGSEPTSGTEGPEHSVNGPASPALNQGS
B3: TC-PTP: human non-receptor tyrosine PTPase, from Calbiochem (protein)
chain: MPTTIEREFEELDTQRRWQPLYLEIRNESHDYPHRVAKFPENRNRNRYRDVSPYDHSRVKLQNAENDYINASLVDIEEAQRSYILTQGPLPNTCCHFWLMVWQQKTKAVVMLNRIVEKESVKCAQYWPTDDQEMLFKETGFSVKLLSEDVKSYYTVHLLQLENINSGETRTISHFHYTTWPDFGVPESPASFLNFLFKVRESGSLNPDHGPAVIHCSAGIGRSGTFSLVDTCLVLMEKGDDINIKQVLLNMRKYRMGLIQTPDQLRFSYMAIIEGAKCIKGDSSIQKRWKELSKEDLSPAFDHSPNKIMTEKYNGNR

Test system: JAK2
Assay: in vitro tyrosine phosphatase assay, substrate JAK2
Assay type: biochemical, mouse
Settings: 30° C., 20 min
Description: For tyrosine phosphatase assays, immunoprecipitated Lyn, JAKs or STATs from lysates of 10^7 BMMCs (for Lyn, JAK1, JAK2, STAT3 and STAT5) or macrophages (for Tyk2) were washed in lysis buffer and phosphatase reaction buffer [Felberg et al., J. Biol. Chem. 273:17839-17845, 1998]. The amounts of Lyn and JAK2 in the immunoprecipitates used in FIG. 3A were 72 ng and 48 ng, respectively, as determined by silver staining. Recombinant CD45 was added to substrates in the presence or absence of 0.1 mM Na3 VO4 followed by incubation at 30° C. for 20 min. Tyrosine phosphorylation was monitored by immunoblotting with phosphotyrosine-specific antibodies. The extent of tyrosine phosphorylation and amount of substrates were determined by quantifying the intensities of the immunoblots with NIH Image 1.61 software. Kinase activity in anti-Lyn or anti-JAK immunoprecipitates was assessed by an in vitro kinase assay with Raytide (Oncogen Science) as a substrate or using authophosphorylation [Lui et al., Genes Dev. 13:786-791, 1999]. In vitro binding assays were performed as described [Felberg et al., J. Biol. Chem. 273:17839-17845, 1998], using 1 μg of soluble GST, GST-CD45-D2, or GST-PTPase-dead CD45 (D1:C828S). EMSAs were as described [Charurvedi et al., Mol. Cell. Biol. 17:3295-3304, 1997]. The sequences of the EMSA probes were: STAT3, 5′-[…]-3′ (SEQ ID NO: 1); STAT3 mutant, 5′-[…]-3′ (SEQ ID NO: 2).
To determine whether CD45 could directly dephosphorylate JAKs and/or STATs, phosphatase assays were used in in vitro studies with recombinant CD45. The rCD45 employed contained the intracellular dual PTPase domains with a relative molecular mas of 97,000 (Mr 97K) (the catalytic D1 and the non-catalytic D2 domains) of CD45 but lacked its extracellular regions. […] Phosphorylation was examined with anti-phosphoryrosine, anti-phospho-Tyr 705 STAT3 (P-Y705-STAT3), and anti-phospho-Try 1007/Try 1008 JAK2 (P-Y1007/1008-JAK2). Assays were performed with 10U (for JAK2) or 90U (for STAT3) of rCD45. […]

Row | Molecule | dephosphorylation of JAK2
1 | B1 | did not dephosphorylate JAK2
2 | B2 | did not dephosphorylate JAK2
3 | B3 | did not dephosphorylate JAK2
